Laboratory results published in the RNAGym collection of RNA variant scans (doi:10.7554/elife.80360).

B1: Twister Ribozyme (parent)
chain: AACACUGCCAAUGCCGGUCCCAAGCCCGGAUAAAAGUGGAGGGGGCGG

Variants of: B1
Assay: self-cleavage, relative activity (ratio to wild type); higher = more cleavage; co-transcriptional

Variant | self-cleavage
C9A C26U | 0.06
A10G C14G | 0.0768
A10G C14U | 1.02
C9U U31G | 0.69
A10U C25G | 0.194
A10C U37C | 0.767
A10C U12G | 1.06
A10U A40C | 0.305
A10U A40U | 0.111
A10G G43C | 0.262
A10G G43A | 0.363
A10U A23C | 0.182
A10U A23G | 0.461
A10G G44A | 0.881
A10G G44C | 0.965
A10G G44U | 1.04
A10C C26U | 0.508
C9A A10U | 0.646
C9A A10G | 0.648
C9A A10C | 0.574
C9G C14A | 0.536
C9G C14U | 0.624
C9A U12C | 0.795
A10C G44U | 0.859

Variant | self-cleavage
C9A G39U | 0.131
C9A G39A | 0.167
A10C G45U | 0.842
A10C G36C | 0.688
A10G G42C | 0.618
A10G G42U | 0.493
A10U C19U | 0.92
C9G U31A | 0.648
A10U G16C | 0.419
A10U G16U | 0.802
C9G A30C | 0.649
C9G A30U | 0.62
A10U G17C | 0.11
A10U G17A | 0.532
A10G G16U | 1.14
A10G G16C | 0.567
A10C G42A | 0.31
A10C G42C | 0.345
A10G C15G | 0.136
A10G C15A | 0.707
A10G U37A | 0.805
A10G U37C | 0.946
A10G U37G | 0.89
A10C G28C | 0.822

Variant | self-cleavage
A10C G28A | 0.841
A10C U18C | 0.787
A10G G29C | 1.01
A10G G29U | 1.12
C9G C21U | 0.0793
C9G C21G | 0.115
C9A A34U | 0.535
C9A A34G | 0.501
C9G G39C | 0.132
C9G C26A | 0.115
C9G C26U | 0.0719
C9G C26G | 0.083
C9A C46U | 0.758
C9A C46A | 0.426
C9A G13C | 0.729
C9A G13A | 1.09
C8U U31A | 0.592
C8U U31G | 0.603
C9A C20G | 0.0801
C9A A32C | 0.665
C9A A32G | 0.729
A10C C14U | 1.01
A10C C14G | 0.289
A10C G41C | 0.23

Variant | self-cleavage
A10C G41U | 0.653
A10C G41A | 0.494
A10C A23U | 0.664
A10C A23C | 0.242
C9G A23U | 0.0839
C9G A23G | 0.0809
C9U G28C | 0.549
A10C G43A | 0.337
A10C G43C | 0.201
A10C G43U | 0.482
C9U C25A | 0.1
C9U C25U | 0.404
A10C G16A | 0.726
A10C G16C | 0.526
A10C C46G | 0.714
C9U A33G | 0.548
C9U A33C | 0.601
C9U A33U | 0.751
C9G G17C | 0.0619
C9G G17U | 0.0981
A10G C27U | 1.01
C9A A33G | 0.522
C9A A33U | 0.638
C9G G38A | 0.278

Variant | self-cleavage
C9G G38C | 0.4
C9U G42C | 0.193
C9U G42U | 0.102
C9G C27G | 0.0899
C9G C27U | 0.326
C9G C27A | 0.098
C9U C14G | 0.0927
A10G C46A | 0.939
A10G C46G | 0.971
A10G A35C | 1.17
A10G A35U | 0.943
C9G G42A | 0.12
C9G G42C | 0.199
C9U G38A | 0.177
C9U G38C | 0.509
A10U A35U | 0.89
C9U G29C | 0.242
C9U G29U | 0.606
A10C G48C | 1.03
C9G A35U | 0.695
C9G A35G | 0.591
C9A G16A | 0.372
C9A G16C | 0.087
C9U A11C | 0.736

Variant | self-cleavage
C9U A32G | 0.729
C9U G36A | 0.281
C9U G36U | 0.164
A10U A22C | 0.93
C9A G48A | 0.357
C9A G48U | 0.451
C9A G48C | 0.541
C9U A30G | 0.865
C9U A30C | 0.526
C9A A23G | 0.055
C9A C15U | 0.567
C9A C15A | 0.35
C9A G17U | 0.0549
C9A G17C | 0.0631
C9A U31A | 0.72
C9U G39C | 0.151
C9U G39U | 0.115
A10G G17C | 0.217
A10G G17A | 1.02
A10U C15G | 0.062
A10U C15A | 0.619
A10U C15U | 0.911
C9G A34U | 0.47
C9G U37G | 0.327

Variant | self-cleavage
C9G U18A | 0.108
C9G U18C | 0.0886
C9G U18G | 0.0467
C9G G24U | 0.0888
C9G G24C | 0.0967
C9G | 0.733
C9U | 0.754
C9A | 0.776
C9U A23C | 0.0976
A10C C21G | 0.0689
C9G G36U | 0.137
C9G G36C | 0.148
C9U G17A | 0.0711
C9U C21G | 0.0888
C9U C21U | 0.0907
C9A G36C | 0.107
C9A C14U | 0.697
C9A C14A | 0.61
C9U G13U | 0.826
C9A G42C | 0.288
A10G A32G | 1.15
A10G A32U | 1.01
C9G G44C | 0.395
C9U A35C | 0.636

Variant | self-cleavage
C9U A35G | 0.615
C9A U18A | 0.0887
C9A U18C | 0.0799
A10U G24U | 0.119
C9U G47C | 0.235
C9G A11C | 0.764
A10G G48A | 0.902
A10G G48U | 1.15
A10G G39A | 0.564
C9A A40G | 0.129
A10C A32G | 0.971
A10C A32U | 0.892
A10G C19A | 0.472
A10G C19U | 1.02
A10G C20U | 0.878
A10G C20A | 0.136
A10G C20G | 0.183
C9U A10G | 0.872
A10G U18A | 0.841
A10G U18G | 0.0537
C9U A34U | 0.477
C9U A34G | 0.3
C9A G24U | 0.111
C9A G24A | 0.0968

Variant | self-cleavage
C9A C27G | 0.0551
C9A C27U | 0.304
C9A C27A | 0.103
A10G A11G | 0.886
A10U C14U | 0.884
C9A A35C | 0.66
C9A A35G | 0.548
C9A A35U | 0.628
C9A G28A | 0.598
C9A G28U | 0.53
C9A G28C | 0.636
C9G G48C | 0.511
C9G G48A | 0.443
C9G G43C | 0.132
C9G G43A | 0.123
C9U G41U | 0.187
C9U G41A | 0.121
A10C C19G | 0.309
A10C A22C | 0.993
A10G G38A | 0.89
A10U C46U | 0.836
A10G A33G | 1.04
A10U G13C | 0.211
A10U G13A | 0.913

Variant | self-cleavage
A10C G47C | 0.538
A10C G47U | 0.741
C9A G43A | 0.153
C9A G43U | 0.149
A10G U12C | 0.847
A10C C27A | 0.673
A10C C27G | 0.0988
C9U U12G | 0.501
C9U U12A | 0.794
C9G U12C | 0.812
C9G U12G | 0.492
A10G G45C | 0.639
A10G A34U | 0.959
A10G A34C | 0.498
A10G G24C | 0.131
A10G G24U | 0.18
C9U G16C | 0.13
A10C G39U | 0.148
C9G G13A | 1.07
C9G G13U | 0.933
C9G G13C | 0.876
C9G C46G | 0.576
C9A U37C | 0.16
A10C A40U | 0.155

Variant | self-cleavage
A10C A40G | 0.181
C9G G16A | 0.329
C9G G16C | 0.0741
A10C C25G | 0.31
A10C C25U | 0.782
A10C C25A | 0.0743
C9A G41A | 0.145
C9A G41C | 0.123
C9A G44C | 0.425
C9A G44A | 0.664
A10U A32G | 0.896
A10U A32C | 0.983
A10U A32U | 0.842
A10G A23C | 0.714
A10G A23G | 0.879
C9U C19G | 0.101
A10G G13C | 0.835
A10G G13U | 0.79
A10G G13A | 1.09
C9A C19G | 0.0837
C9A C19A | 0.089
C9U C46G | 0.651
C9U C46A | 0.549
C8U U37C | 0.284

Variant | self-cleavage
C8U U37A | 0.307
A10G A40U | 0.157
A10G A40C | 0.46
A10G A40G | 0.185
C9A A22C | 0.642
C9A A22G | 0.101
C9A A22U | 0.259
C9G G41C | 0.145
C9G G41U | 0.122
A10G A30U | 0.984
A10G A30C | 0.981
C9G G45C | 0.171
C9G G45U | 0.205
C9A C25U | 0.185
C9A C25G | 0.0787
A10G A22C | 0.818
A10G A22G | 0.268
A10G A22U | 0.971
A10U A34U | 0.818
C9A G38A | 0.393
C9A G38C | 0.589
A10G G28C | 1.05
C9G G47C | 0.186
C9G G47U | 0.278

Variant | self-cleavage
C9G G47A | 0.38
C9G C25G | 0.0708
C9G C25A | 0.0478
C9G C25U | 0.194
A10C C20U | 0.941
A10C C20G | 0.0778
C9A A30U | 0.725
C9A A30G | 0.846
C9A A30C | 0.608
C9U G45U | 0.328
C9U G45A | 0.547
C9U G43C | 0.151
C9A G45A | 0.41
C9A G45C | 0.131
A10C G38A | 0.947
C9U C27A | 0.064
A10G C25G | 0.409
A10G G47A | 0.821
A10G G47C | 0.809
A10C A33C | 1.14
A10U C27G | 0.057
A10U C27U | 0.93
A10G C21G | 0.0634
A10G C21A | 0.137

Variant | self-cleavage
C9G A22C | 0.708
C9G A22U | 0.187
C9G A22G | 0.0988
C9U C15A | 0.22
C9U C15U | 0.594
A10C U31G | 0.737
A10C G24C | 0.0859
C8U U18A | 0.0657
A10C A35G | 0.965
C9G C20U | 0.23
A10C A30G | 0.969
A10C A30C | 0.884
A10G C26U | 0.285
A10G C26A | 0.518
C9U G24A | 0.0648
C9U G24C | 0.0718
C9G C15U | 0.479
C9U G48C | 0.795
C9U G48U | 0.646
C9U G48A | 0.491
A10C G13U | 0.677
C9G A32U | 0.517
